Patent publication US20140105889A1 (published 2014)

B1: IgG1-F445 (antibody, name in EU numbering)
heavy: QVQLQESGPGLVKPSETLSLTCAVSGHSISHDHAWSWVRQPPGEGLEWIGFISYSGITNYNPSLQGRVTISRDNSKNTLYLQMNSLRAEDTAVYYCARSLARTTAMDYWGEGTLVTVSSASTKGPSVFPLAPSSKSTSGGTAALGCLVKDYFPEPVTVSWNSGALTSGVHTFPAVLQSSGLYSLSSVVTVPSSSLGTQTYICNVNHKPSNTKVDKKVEPKSCDKTHTCPPCPAPELLGGPSVFLFPPKPKDTLMISRTAEVTCVVVDVSHEDPEVKFNWYVDGVEVHNAKTKPREEQYNSTYRVVSVLQVLHHDWLNGKEYKCKVSNKALPAPIEKTISKAKGQPREPQVYTLPPSRDELTKNQVSLTCLVKGFYPSDIAVEWESNGQPENNYKTTPPVLDSDGSFFLYSKLTVDKSRWQQGNVFSCSVLHEALHYHYTQKSLSLSP
light: not shown
notes: copies: 2 + 2
B2: IgG1-F450 (antibody, name in EU numbering)
heavy: QVQLQESGPGLVKPSETLSLTCAVSGHSISHDHAWSWVRQPPGEGLEWIGFISYSGITNYNPSLQGRVTISRDNSKNTLYLQMNSLRAEDTAVYYCARSLARTTAMDYWGEGTLVTVSSASTKGPSVFPLAPSSKSTSGGTAALGCLVKDYFPEPVTVSWNSGALTSGVHTFPAVLQSSGLYSLSSVVTVPSSSLGTQTYICNVNHKPSNTKVDKKVEPKSCDKTHTCPPCPAPELLGGPKVFLFPPKPKDTLYISRTPEVTCVVVDVSHEDPEVKFNWYVDGVEVHNAKTKPREEQYNSTYRVVSVLPVEHQDWLNGKEYKCKVSGKALPAPIEKTISKAKGQPREPQVYTLPPSRDELTKNQVSLTCLVKGFYPSDIAVEWESNGQPENNYKTTPPVLDSDGSFFLYSKLTVDKSRWQQGNVFSCSVYHEALHYHYTQKSLSLSP
light: not shown
notes: copies: 2 + 2
B3: IgG1-F462 (antibody, name in EU numbering)
heavy: QVQLQESGPGLVKPSETLSLTCAVSGHSISHDHAWSWVRQPPGEGLEWIGFISYSGITNYNPSLQGRVTISRDNSKNTLYLQMNSLRAEDTAVYYCARSLARTTAMDYWGEGTLVTVSSASTKGPSVFPLAPSSKSTSGGTAALGCLVKDYFPEPVTVSWNSGALTSGVHTFPAVLQSSGLYSLSSVVTVPSSSLGTQTYICNVNHKPSNTKVDKKVEPKSCDKTHTCPPCPAPELLGGPSVFLFPPKPKDTLMISRTAEVTCVVVDVSHEDPEVKFNWYVDGVEVHNAKTKPREEQYNSTYRVVSVLTPLHQDWLNGKEYKCKVSGKALPAPIEKTISKAKGQPREPQVYTLPPSRDELTKNQVSLTCLVKGFYPSDIAVEWESNGQPENNYKTTPPVLDSDGSFFLYSKLTVDKSRWQQGNVFSCSVLHEALHYHYTQKSLSLSP
light: not shown
notes: copies: 2 + 2
B4: IgG1-F327 (antibody, name in EU numbering)
heavy: QVQLQESGPGLVKPSETLSLTCAVSGHSISHDHAWSWVRQPPGEGLEWIGFISYSGITNYNPSLQGRVTISRDNSKNTLYLQMNSLRAEDTAVYYCARSLARTTAMDYWGEGTLVTVSSASTKGPSVFPLAPSSKSTSGGTAALGCLVKDYFPEPVTVSWNSGALTSGVHTFPAVLQSSGLYSLSSVVTVPSSSLGTQTYICNVNHKPSNTKVDKKVEPKSCDKTHTCPPCPAPELLGGPKVFLFPPKPKDTLYISREPEVTCVVVDVSHEFPEVKFNWYVDGVEVHNAKTKPREEQYNSTYRVVSVLQVLHADWLNGKEYKCKVSNKALPAPIEKTISKAKGQPREPQVYTLPPSRDELTKNQVSLTCLVKGFYPSDIAVEWESNGQPENNYKTTPPVLDSDGSFFLYSKLTVDKSRWQQGNVFSCSVMHEALHYHYTQKSLSLSP
light: not shown
notes: Fc variant of VH3-IgG1; copies: 2 + 2
B5: IgG1-F329 (antibody, name in EU numbering)
heavy: QVQLQESGPGLVKPSETLSLTCAVSGHSISHDHAWSWVRQPPGEGLEWIGFISYSGITNYNPSLQGRVTISRDNSKNTLYLQMNSLRAEDTAVYYCARSLARTTAMDYWGEGTLVTVSSASTKGPSVFPLAPSSKSTSGGTAALGCLVKDYFPEPVTVSWNSGALTSGVHTFPAVLQSSGLYSLSSVVTVPSSSLGTQTYICNVNHKPSNTKVDKKVEPKSCDKTHTCPPCPAPELLGGPKVFLFPPKPKDTLYISRTPEVTCVVVDVSHEFPEVKFNWYVDGVEVHEAKTKPREEQYNSTYRVVSVLTPLHQDWLNGKEYKCKVSNKALPAPIEKTISKAKGQPREPQVYTLPPSRDELTKNQVSLTCLVKGFYPSDIAVEWESNGQPENNYKTTPPVLDSDGSFFLYSKLTVDKSRWQQGNVFSCSVMHEALHYHYTQKSLSLSP
light: not shown
notes: as for B4
B6: IgG1-F357 (antibody, name in EU numbering)
heavy: QVQLQESGPGLVKPSETLSLTCAVSGHSISHDHAWSWVRQPPGEGLEWIGFISYSGITNYNPSLQGRVTISRDNSKNTLYLQMNSLRAEDTAVYYCARSLARTTAMDYWGEGTLVTVSSASTKGPSVFPLAPSSKSTSGGTAALGCLVKDYFPEPVTVSWNSGALTSGVHTFPAVLQSSGLYSLSSVVTVPSSSLGTQTYICNVNHKPSNTKVDKKVEPKSCDKTHTCPPCPAPELLGGPKVFLFPPKPKDTLYISREPEVTCVVVDVSHEFPEVKFNWYVDGVEVHNAKTKPREEQYNSTYRVVSVLTPLHQDWLNGKEYKCKVSGKALPAPIEKTISKAKGQPREPQVYTLPPSRDELTKNQVSLTCLVKGFYPSDIAVEWESNGQPENNYKTTPPVLDSDGSFFLYSKLTVDKSRWQQGNVFSCSVIHEALHYHYTQKSLSLSP
light: not shown
notes: as for B4
B7: IgG1-F382 (antibody, name in EU numbering)
heavy: QVQLQESGPGLVKPSETLSLTCAVSGHSISHDHAWSWVRQPPGEGLEWIGFISYSGITNYNPSLQGRVTISRDNSKNTLYLQMNSLRAEDTAVYYCARSLARTTAMDYWGEGTLVTVSSASTKGPSVFPLAPSSKSTSGGTAALGCLVKDYFPEPVTVSWNSGALTSGVHTFPAVLQSSGLYSLSSVVTVPSSSLGTQTYICNVNHKPSNTKVDKKVEPKSCDKTHTCPPCPAPELLGGPSVFLFPPKPKDTLMISRTVEVTCVVVDVSHEDPEVKFNWYVDGVEVHNAKTKPREEQYNSTYRVVSALAVLHQDWLNGKEYKCKVSNKALPAPIEKTISKAKGQPREPQVYTLPPSRDELTKNQVSLTCLVKGFYPSDIAVEWESNGQPENNYKTTPPVLDSDGSFFLYSKLTVDKSRWQQGNVFSCSVLHEALHYHYTQKSLSLSP
light: not shown
notes: as for B4
B8: IgG1-F393 (antibody, name in EU numbering)
heavy: QVQLQESGPGLVKPSETLSLTCAVSGHSISHDHAWSWVRQPPGEGLEWIGFISYSGITNYNPSLQGRVTISRDNSKNTLYLQMNSLRAEDTAVYYCARSLARTTAMDYWGEGTLVTVSSASTKGPSVFPLAPSSKSTSGGTAALGCLVKDYFPEPVTVSWNSGALTSGVHTFPAVLQSSGLYSLSSVVTVPSSSLGTQTYICNVNHKPSNTKVDKKVEPKSCDKTHTCPPCPAPELLGGPKVFLFPPKPKDTLYISRTPEVTCVVVDVSHEDPEVKFNWYVDGVEVHEAKTKPREEQYNSTYRVVSVLTPLHQDWLNGKEYKCKVSNKALPAPIEKTISKAKGQPREPQVYTLPPSRDELTKNQVSLTCLVKGFYPSDIAVEWESNGQPENNYKTTPPVLDSDGSFFLYSKLTVDKSRWQQGNVFSCSVMHEALHYHYTQKSLSLSP
light: not shown
notes: as for B4
B9: IgG1-F398 (antibody, name in EU numbering)
heavy: QVQLQESGPGLVKPSETLSLTCAVSGHSISHDHAWSWVRQPPGEGLEWIGFISYSGITNYNPSLQGRVTISRDNSKNTLYLQMNSLRAEDTAVYYCARSLARTTAMDYWGEGTLVTVSSASTKGPSVFPLAPSSKSTSGGTAALGCLVKDYFPEPVTVSWNSGALTSGVHTFPAVLQSSGLYSLSSVVTVPSSSLGTQTYICNVNHKPSNTKVDKKVEPKSCDKTHTCPPCPAPELLGGPKVFLFPPKPKDTLYISRTPEVTCVVVDVSHEFPEVKFNWYVDGVEVHEAKTKPREEQYNSTYRVVSVLQPLHADWLNGKEYKCKVSNKALPAPIEKTISKAKGQPREPQVYTLPPSRDELTKNQVSLTCLVKGFYPSDIAVEWESNGQPENNYKTTPPVLDSDGSFFLYSKLTVDKSRWQQGNVFSCSVIHEALHYHYTQKSLSLSP
light: not shown
notes: as for B4
B10: IgG1-F419 (antibody, name in EU numbering)
heavy: QVQLQESGPGLVKPSETLSLTCAVSGHSISHDHAWSWVRQPPGEGLEWIGFISYSGITNYNPSLQGRVTISRDNSKNTLYLQMNSLRAEDTAVYYCARSLARTTAMDYWGEGTLVTVSSASTKGPSVFPLAPSSKSTSGGTAALGCLVKDYFPEPVTVSWNSGALTSGVHTFPAVLQSSGLYSLSSVVTVPSSSLGTQTYICNVNHKPSNTKVDKKVEPKSCDKTHTCPPCPAPELLGGPSVFLFPPKPKDTLYISRTPEVTCVVVDVSHEDPEVKFNWYVDGVEVHNAKTKPREEQYNSTYRVVSVLAVLHHDWLNGKEYKCKVSNKALPAPIEKTISKAKGQPREPQVYTLPPSRDELTHNQVSLTCLVKGFYPSDIAVEWESNGQPENNYKTTPPVLDSDGSFFLYSKLTVDKSRWQQGNVFSCSVMHEALHYHYTQKSLSLSP
light: not shown
notes: as for B4
B11: IgG1-F421 (antibody, name in EU numbering)
heavy: QVQLQESGPGLVKPSETLSLTCAVSGHSISHDHAWSWVRQPPGEGLEWIGFISYSGITNYNPSLQGRVTISRDNSKNTLYLQMNSLRAEDTAVYYCARSLARTTAMDYWGEGTLVTVSSASTKGPSVFPLAPSSKSTSGGTAALGCLVKDYFPEPVTVSWNSGALTSGVHTFPAVLQSSGLYSLSSVVTVPSSSLGTQTYICNVNHKPSNTKVDKKVEPKSCDKTHTCPPCPAPELLGGPSVFLFPPKPKDTLYISRTPEVTCVVVDVSHEDPEVKFNWYVDGVEVHNAKTKPREEQYNSTYRVVSVLAVLHHDWLNGKEYKCKVSNKALPAPIEKTISKAKGQPREPQVYTLPPSRDELTKNQVSLTCLVKGFYPSDIAVEWESNGQPENNYKTTPPVLDSDGSFFLYSKLTVDKSRWQQGNVFSCSVAHEALHYHYTQKSLSLSP
light: not shown
notes: as for B4
B12: IgG1-F434 (antibody, name in EU numbering)
heavy: QVQLQESGPGLVKPSETLSLTCAVSGHSISHDHAWSWVRQPPGEGLEWIGFISYSGITNYNPSLQGRVTISRDNSKNTLYLQMNSLRAEDTAVYYCARSLARTTAMDYWGEGTLVTVSSASTKGPSVFPLAPSSKSTSGGTAALGCLVKDYFPEPVTVSWNSGALTSGVHTFPAVLQSSGLYSLSSVVTVPSSSLGTQTYICNVNHKPSNTKVDKKVEPKSCDKTHTCPPCPAPELLGGPSVFLFPPKPKDTLMISRTVEVTCVVVDVSHEDPEVKFNWYVDGVEVHNAKTKPREEQYNSTYRVVSVLQVLHADWLNGKEYKCKVSGKALPAPIEKTISKAKGQPREPQVYTLPPSRDELTKNQVSLTCLVKGFYPSDIAVEWESNGQPENNYKTTPPVLDSDGSFFLYSKLTVDKSRWQQGNVFSCSVYHEALHYHYTQKSLSLSP
light: not shown
notes: as for B4

Molecular target: T1, human FcRn (soluble human FcRn complexed with β2-microglobulin) (human, UniProt P61769 21-119)
T1 construct: also called hFcRn
T1 sequence (chain, as listed by the source limits assumed, chain 1 of 2): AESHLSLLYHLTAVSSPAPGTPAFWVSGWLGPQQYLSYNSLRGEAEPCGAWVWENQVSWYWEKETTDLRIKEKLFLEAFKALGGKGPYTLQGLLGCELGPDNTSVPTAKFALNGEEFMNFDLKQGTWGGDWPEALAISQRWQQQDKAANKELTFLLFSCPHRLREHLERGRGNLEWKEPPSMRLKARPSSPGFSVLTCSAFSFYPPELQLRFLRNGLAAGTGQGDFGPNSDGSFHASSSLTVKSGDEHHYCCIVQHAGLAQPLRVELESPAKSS
T1 sequence (P61769 21-119 limits assumed, chain 2 of 2): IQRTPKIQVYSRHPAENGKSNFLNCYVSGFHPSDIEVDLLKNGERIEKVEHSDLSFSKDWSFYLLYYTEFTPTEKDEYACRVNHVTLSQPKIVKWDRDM
Test: SPR (Biacore), Protein L capture, hFcRn analyte, pH 7.0

Question: With B1 as the binder, how does the Kd read?
Answer: 62 nM

Question: Which Kd does the source give for B2 here?
Answer: 520 nM

Question: How did the Kd turn out when B3 was run?
Answer: 85 nM

Molecular target: T2, human FcRn (soluble human FcRn complexed with beta2-microglobulin) (human, UniProt P61769 21-119)
T2 construct: Soluble human FcRn complexed with beta2-microglobulin; also called hFcRn
T2 sequence (chain, as listed by the source limits assumed, chain 1 of 2): as the sequence (chain, as listed by the source limits assumed, chain 1 of 2) above
T2 sequence (P61769 21-119 limits assumed, chain 2 of 2): as the sequence (P61769 21-119 limits assumed, chain 2 of 2) above
Test: Biacore SPR, antibody captured on Protein L, human FcRn analyte, pH 7.0

Question: B4 was tested. Which Kd did it give?
Answer: 65 nM

Question: For B5, which Kd is on record?
Answer: 12 nM

Question: How did the Kd turn out when B6 was run?
Answer: 16 nM

Molecular target: T2, human FcRn (soluble human FcRn …)
Test: as above
Remark: another data set of the same source

Question: With B7 as the binder, how does the Kd read?
Answer: 87 nM

Question: B8 was tested. Which Kd did it give?
Answer: 12 nM

Question: B9 was tested. Which Kd did it give?
Answer: 4.4 nM

Molecular target: T2, human FcRn (soluble human FcRn …)
Test: as above
Remark: another data set of the same source

Question: B10 was tested. Which Kd did it give?
Answer: 160 nM

Question: For B11, which Kd is on record?
Answer: 130 nM

Question: How did the Kd turn out when B12 was run?
Answer: 20 nM
